What was measured:
[1] = target: IL-2 receptor signaling complex on primary human NK cells and CD8+ T cells (IL-2Rβγ) (human) (UniProt P14784); test: cell-based or functional assay; design: unit not given beside the values
[2] = target: IL-2 receptor signaling complex on primary human Treg cells (IL-2Rα expressing; IL-2Rαβγ) (human) (UniProt P01589); test: cell-based or functional assay; design: unit not given beside the values
Sequence of IL-2 receptor signaling complex on primary human Treg cells (IL-2Rα expressing; IL-2Rαβγ) (human) (P01589 22-272, chain 1 of 3): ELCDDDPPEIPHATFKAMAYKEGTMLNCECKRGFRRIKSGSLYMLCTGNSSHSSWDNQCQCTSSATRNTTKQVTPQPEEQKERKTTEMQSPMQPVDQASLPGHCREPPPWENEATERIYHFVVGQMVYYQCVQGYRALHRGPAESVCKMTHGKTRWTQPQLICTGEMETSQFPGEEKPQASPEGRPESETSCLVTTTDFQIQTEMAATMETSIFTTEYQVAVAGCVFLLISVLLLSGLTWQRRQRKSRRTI
Sequence of IL-2 receptor signaling complex on primary human Treg cells (IL-2Rα expressing; IL-2Rαβγ) (human) (P14784 27-551, chain 2 of 3, further chain): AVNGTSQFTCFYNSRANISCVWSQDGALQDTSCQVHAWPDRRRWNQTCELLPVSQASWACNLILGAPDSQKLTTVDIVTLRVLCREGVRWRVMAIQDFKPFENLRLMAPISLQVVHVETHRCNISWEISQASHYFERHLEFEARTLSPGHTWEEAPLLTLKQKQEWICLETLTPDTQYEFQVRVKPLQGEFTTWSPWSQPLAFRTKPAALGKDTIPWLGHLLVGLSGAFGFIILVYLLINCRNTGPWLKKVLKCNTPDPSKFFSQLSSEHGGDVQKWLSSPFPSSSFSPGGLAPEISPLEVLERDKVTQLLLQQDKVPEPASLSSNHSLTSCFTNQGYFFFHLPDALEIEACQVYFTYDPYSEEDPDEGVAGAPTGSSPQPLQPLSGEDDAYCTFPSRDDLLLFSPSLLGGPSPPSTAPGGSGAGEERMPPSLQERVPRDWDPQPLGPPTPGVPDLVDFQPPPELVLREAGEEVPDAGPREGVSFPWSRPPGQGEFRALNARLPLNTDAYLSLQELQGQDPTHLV
Sequence of IL-2 receptor signaling complex on primary human Treg cells (IL-2Rα expressing; IL-2Rαβγ) (human) (P31785 23-369, chain 3 of 3, further chain): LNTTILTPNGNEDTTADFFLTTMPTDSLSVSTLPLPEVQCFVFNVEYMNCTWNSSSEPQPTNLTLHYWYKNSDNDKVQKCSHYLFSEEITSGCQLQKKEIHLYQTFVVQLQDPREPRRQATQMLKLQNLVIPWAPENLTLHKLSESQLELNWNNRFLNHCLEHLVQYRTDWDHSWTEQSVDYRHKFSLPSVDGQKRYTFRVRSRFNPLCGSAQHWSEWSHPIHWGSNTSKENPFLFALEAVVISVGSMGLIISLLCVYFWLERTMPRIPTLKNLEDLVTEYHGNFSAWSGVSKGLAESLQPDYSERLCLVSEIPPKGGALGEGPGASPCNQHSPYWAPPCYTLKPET

Sequence of IL-2 receptor signaling complex on primary human NK cells and CD8+ T cells (IL-2Rβγ) (human) (P14784 27-551, chain 1 of 2): as the sequence (P14784 27-551, chain 2 of 3, further chain) above
Sequence of IL-2 receptor signaling complex on primary human NK cells and CD8+ T cells (IL-2Rβγ) (human) (P31785 23-369, chain 2 of 2, further chain): as the sequence (P31785 23-369, chain 3 of 3, further chain) above
Sequence of S127_30kD (P60568 other isoform, or with tags, fused parts or gaps limits assumed): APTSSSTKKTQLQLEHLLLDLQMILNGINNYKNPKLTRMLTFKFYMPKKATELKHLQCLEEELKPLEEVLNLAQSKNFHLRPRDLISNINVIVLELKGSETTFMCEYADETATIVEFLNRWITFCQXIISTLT

EC50 for pSTAT5 signaling, CD8+ T cells [1] | EC50 for pSTAT5 signaling, NK cells [1] | EC50 for pSTAT5 signaling, Treg cells [2] | Substance
1.5e+07 | 2.31e+06 | 11100 | N88R (from UniProt P60568 21-153) (ligand)
1.25e+07 | 2.78e+06 | 176000 | N88R/D109_30kD (from UniProt P60568 21-153) (ligand)
 |  | 150 | S127_30kD (from UniProt P60568 21-153) (ligand)
102000 | 20500 | 142 | V91K (from UniProt P60568 21-153) (ligand)

Source: patent US20220016249A1
